{"source": "paper PMC8726653", "about": "“TNF-induced necroptosis initiates early autophagy events via RIPK3-dependent AMPK activation, but inhibits late autophagy” (Autophagy, 2021)", "binders": {"B1": {"name": "GST-MmRIPK3 (enzyme, mouse, UniProt Q9QZL0 1-486, looked up)", "chain": "MSSVKLWPTGASAVPLVSREELKKLEFVGKGGFGVVFRAHHRTWNHDVAVKIVNSKKISWEVKAMVNLRNENVLLLLGVTEDLQWDFVSGQALVTRFMENGSLAGLLQPECPRPWPLLCRLLQEVVLGMCYLHSLNPPLLHRDLKPSNILLDPELHAKLADFGLSTFQGGSQSGSGSGSGSRDSGGTLAYLDPELLFDVNLKASKASDVYSFGILVWAVLAGREAELVDKTSLIRETVCDRQSRPPLTELPPGSPETPGLEKLKELMIHCWGSQSENRPSFQDCEPKTNEVYNLVKDKVDAAVSEVKHYLSQHRSSGRNLSAREPSQRGTEMDCPRETMVSKMLDRLHLEEPSGPVPGKCPERQAQDTSVGPATPARTSSDPVAGTPQIPHTLPFRGTTPGPVFTETPGPHPQRNQGDGRHGTPWYPWTPPNPMTGPPALVFNNCSEVQIGNYNSLVAPPRTTASSSAKYDQAQFGRGRGWQPFHK", "notes": "cDNA amplified from pBOB-FLAG-MmRIPK3 and inserted into pGEX-5X-3; also called recombinant RIPK3; source: E. coli BL21 (DE3), purified on glutathione sepharose 4B beads"}}, "target": "T1, His-AMPK [His-HsPRKAA1 (11–559) + HsPRKAB2 (1–272) + HsPRKAG1 (1–331)] (human, UniProt Q13131 11-559; O43741 1-272; P54619 1-331)", "T1 construct": "also called DU32489; source: obtained: MRC PPU Reagents and Services, University of Dundee (DU32489); copies: + +", "T1 sequence (Q13131 11-559, chain 1 of 3)": "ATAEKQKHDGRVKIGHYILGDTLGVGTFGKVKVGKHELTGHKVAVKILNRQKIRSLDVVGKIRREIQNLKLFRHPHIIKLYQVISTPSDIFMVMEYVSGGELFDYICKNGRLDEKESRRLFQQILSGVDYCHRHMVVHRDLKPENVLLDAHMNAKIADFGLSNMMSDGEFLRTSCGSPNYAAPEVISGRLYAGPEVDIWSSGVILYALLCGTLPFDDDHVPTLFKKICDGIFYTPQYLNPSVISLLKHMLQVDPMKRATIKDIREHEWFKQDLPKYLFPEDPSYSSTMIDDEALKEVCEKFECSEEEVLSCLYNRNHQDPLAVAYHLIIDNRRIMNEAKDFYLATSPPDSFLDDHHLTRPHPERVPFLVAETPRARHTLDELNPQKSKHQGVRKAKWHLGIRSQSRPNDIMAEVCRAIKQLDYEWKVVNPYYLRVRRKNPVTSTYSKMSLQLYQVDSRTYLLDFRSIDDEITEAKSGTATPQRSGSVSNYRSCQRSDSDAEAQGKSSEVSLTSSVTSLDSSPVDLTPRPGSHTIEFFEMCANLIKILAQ", "T1 sequence (O43741 whole entry, chain 2 of 3)": "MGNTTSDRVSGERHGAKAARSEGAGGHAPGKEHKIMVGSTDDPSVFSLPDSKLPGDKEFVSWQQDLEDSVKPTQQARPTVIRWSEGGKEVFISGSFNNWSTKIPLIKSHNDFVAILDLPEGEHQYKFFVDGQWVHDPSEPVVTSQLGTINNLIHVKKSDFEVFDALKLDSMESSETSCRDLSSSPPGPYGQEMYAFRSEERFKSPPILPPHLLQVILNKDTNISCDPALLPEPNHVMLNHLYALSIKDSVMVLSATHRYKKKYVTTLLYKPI", "T1 sequence (P54619 whole entry, chain 3 of 3)": "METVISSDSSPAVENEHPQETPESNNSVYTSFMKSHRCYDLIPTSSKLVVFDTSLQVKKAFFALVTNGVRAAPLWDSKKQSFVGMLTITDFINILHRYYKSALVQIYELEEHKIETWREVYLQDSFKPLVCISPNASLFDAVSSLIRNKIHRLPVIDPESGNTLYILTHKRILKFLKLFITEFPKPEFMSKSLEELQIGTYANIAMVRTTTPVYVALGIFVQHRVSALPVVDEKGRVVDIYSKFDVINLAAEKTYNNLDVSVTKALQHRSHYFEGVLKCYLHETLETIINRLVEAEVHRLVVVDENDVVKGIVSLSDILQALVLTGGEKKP", "assay": "pull-down; 4 µg GST-MmRIPK3 (or GST) on glutathione-Sepharose beads incubated with 1 µg His-AMPK overnight at 4°C in 0.5% Nonidet P-40 buffer (50 mM Tris pH 8.0, 100 mM NaCl, 6 mM EDTA, 6 mM EGTA, 1 mM DTT); blot for AMPK and GST", "conditions": "both partners purified"}
{"binder": "B1", "values": [{"measurement": "binding result", "value": "binds"}]}
